{
  "source": "patent US20250269048A1",
  "about": "(BIVICTRIX, published 2025)",
  "binders": {"B1": {"name": "CD7-PP-13 CD7 binding arm (Fab, V domains shown)", "VH": "QVQLQESGAELVKPGASVKLSCKASGYTFTSYWMHWVKQRPGQGLEWIGKINPSNGRTNYNEKFKSKATLTVDKSSSTAYMQLSSLTSEDSAVYYCARGGVYYDLYYAALDYWGQGTTVTVSS", "VL": "DIELTQSPATLSVTPGDSVSLSCRASQSISNNLHWYQQKSHESPRLLIKSASQSISGIPSRFSGSGSGTDFTLSINSVETEDFGMYFCQQSNSWPYTFGGGTKLEIKR", "notes": "Heavy chain CDR3 Tyr108Ala; also called 7-PP-13 (mut_17-AA-1)"}, "B2": {"name": "BVX100 (bispecific antibody)", "heavy": "QVQLQESGAELVKPGASVKLSCKASGYTFTSYWMHWVKQRPGQGLEWIGKINPSNGRTNYNEKFKSKATLTVDKSSSTAYMQLSSLTSEDSAVYYCARGGVYYDLYYYALDYWGQGTTVTVSSASTKGPSVFPLAPSSKSTSGGTAALGCLVKDYFPEPVTVSWNSGALTSGVHTFPAVLQSSGLYSLSSVVTVPSSSLGTQTYCCNVNHKPSNTKVDKKVEPKSCDKT", "light": "DIELTQSPATLSVTPGDSVSLSCRASQSISNNLHWYQQKSHESPRLLIKSASQSISGIPSRFSGSGSGTDFTLSINSVETEDFGMYFCQQSNSWPYTFGGGTKLEIKRTVAAPSVFIFPPSDEQLKSGTASVVCLLNNFYPREAKVQWKVDNALQSGNSQESVTEQDSKDSTYSLSSTLTLSKADYEKHKVYACEVTHQGLSSPVTKSFNRGEC", "VH": "EVQLVQSGAEVKKPGSSVKVSCKASGYTITDSNIHWVRQAPGQSLEWIGYIYPYNGGTDYNQKFKNRATLTVDNPTNTAYMELSSLRSEDTAFYYCVNGNPWLAYWGQGTLVTVSS", "VL": "DIQLTQSPSTLSASVGDRVTIICRASESLDNYGIRFLTWFQQKPGKAPKLLMYAASNQGSGVPSRFSGSGSGTEFTLTISSLQPDDFATYYCQQTKEVPWSFGQGTKLEIK", "notes": "also called CD33-PP-1 WT/CD7-PP-1 WT"}, "B3": {"name": "CD33-PP-1-WT binding arm (Fab, V domains shown)", "VH": "B2 VH", "VL": "B2 VL"}, "B4": {"name": "BVX161 (bispecific antibody)", "heavy": "B2 heavy with Y108A", "light": "B2 light", "VH": "B2 VH with W102Y", "VL": "B2 VL", "notes": "bi-Fab; also called CD33-PP-4/CD7-PP-13"}, "B5": {"name": "CD33-PP-7 binding arm (Fab, V domains shown)", "VH": "B2 VH with W102Y, Y105A", "VL": "B2 VL"}, "B6": {"name": "BVX101 (bispecific antibody)", "heavy": "B2 heavy", "light": "B2 light", "VH": "B2 VH with W102Y", "VL": "B2 VL", "notes": "bi-Fab; also called CD33-PP-4/CD7-PP-1 WT"}, "B7": {"name": "BVX162 (bispecific antibody)", "heavy": "B2 heavy with Y108A", "light": "B2 light", "VH": "B2 VH with W102Y, Y105A", "VL": "B2 VL", "notes": "bi-Fab; also called CD33-PP-7/CD7-PP-13"}, "B8": {"name": "BVX120 (bispecific antibody)", "heavy": "B2 heavy with R57K", "light": "B2 light", "VH": "B2 VH", "VL": "B2 VL", "notes": "bi-Fab; also called CD33-PP-1 WT/CD7-PP-3"}, "B9": {"name": "BVX102 (bispecific antibody)", "heavy": "B2 heavy", "light": "B2 light", "VH": "B2 VH with W102Y, Y105A", "VL": "B2 VL", "notes": "bi-Fab; also called CD33-PP-7/CD7-PP-1 WT"}, "B10": {"name": "BVX150 (bispecific antibody)", "heavy": "B2 heavy with R57K, Y108A", "light": "B2 light", "VH": "B2 VH", "VL": "B2 VL", "notes": "bi-Fab; also called CD33-PP-1 WT/CD7-PP-8"}, "B11": {"name": "BVX110 (bispecific antibody)", "heavy": "B2 heavy with R57G", "light": "B2 light", "VH": "B2 VH", "VL": "B2 VL", "notes": "bi-Fab; also called CD33-PP-1 WT/CD7-PP-2"}, "B12": {"name": "CD33-PP-4 binding arm (Fab, V domains shown)", "VH": "B2 VH with W102Y", "VL": "B2 VL"}, "B13": {"name": "BVX152 (bispecific antibody)", "heavy": "B2 heavy with R57K, Y108A", "light": "B2 light", "VH": "B2 VH with W102Y, Y105A", "VL": "B2 VL", "notes": "bi-Fab; also called CD33-PP-7/CD7-PP-8"}},
  "key": {"human CD7 [1]": {"target": "T1, human CD7 (human, UniProt P09564 26-180, limits assumed)", "T1 construct": "The construct is not described", "T1 sequence (looked up)": "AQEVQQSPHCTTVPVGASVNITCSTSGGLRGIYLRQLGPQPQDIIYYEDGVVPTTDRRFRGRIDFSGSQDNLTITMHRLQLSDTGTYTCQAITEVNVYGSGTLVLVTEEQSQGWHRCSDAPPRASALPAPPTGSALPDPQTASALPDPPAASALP", "assay": "SPR; reference 7-PP-1 WT"}, "human CD7 on cells [2]": {"target": "T2, human CD7 on cells (human, UniProt P09564 26-240)", "T2 construct": "whole, on cells; Target of the FACS and cell capture values and of the kill assays on CD7 single positive cells; also called CD7+ cells; Jurkat (CD33-/CD7+)", "T2 sequence (looked up)": "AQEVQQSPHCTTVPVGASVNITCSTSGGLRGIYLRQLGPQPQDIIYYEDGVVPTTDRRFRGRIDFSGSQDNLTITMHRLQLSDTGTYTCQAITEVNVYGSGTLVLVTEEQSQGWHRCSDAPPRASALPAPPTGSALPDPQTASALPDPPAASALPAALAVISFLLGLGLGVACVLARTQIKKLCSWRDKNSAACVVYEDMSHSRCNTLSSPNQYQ", "assay": "FACS; cells not named"}, "human CD7 [3]": {"target": "T1, human CD7", "assay": "SPR"}, "human CD7 [4]": {"target": "T1, human CD7", "assay": "SPR; reference 7-AA-WT"}, "human CD7 on cells [5]": {"target": "T2, human CD7 on cells", "assay": "cell capt. exp.", "parameters": "unit not given here"}, "human CD7 on cells [6]": {"target": "T2, human CD7 on cells", "assay": "FACS; reference 7-PP-1 WT"}, "human CD7 [7]": {"target": "T1, human CD7", "assay": "SPR (Kd); value of the CD7 arm 7-PP-1 WT"}, "human CD33 [8]": {"target": "T3, human CD33 (human, UniProt P20138 18-259, limits assumed)", "T3 construct": "The construct is not described", "T3 sequence (P20138 18-259 limits assumed)": "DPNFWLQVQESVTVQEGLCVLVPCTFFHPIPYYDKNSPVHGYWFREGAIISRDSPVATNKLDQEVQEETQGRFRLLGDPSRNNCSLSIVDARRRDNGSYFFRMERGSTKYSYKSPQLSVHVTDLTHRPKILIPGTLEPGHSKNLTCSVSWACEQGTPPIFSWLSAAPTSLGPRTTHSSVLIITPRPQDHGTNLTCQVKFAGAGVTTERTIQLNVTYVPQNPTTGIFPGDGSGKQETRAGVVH", "assay": "SPR (Kd); value of the CD33 arm 33-PP-1 WT"}, "human CD33 on cells": {"target": "T4, human CD33 on cells (human, UniProt P20138 18-364)", "T4 construct": "whole, on cells; also called CD33+ cells; MV4.11 (CD7-/CD33+)", "T4 sequence (P20138 18-364)": "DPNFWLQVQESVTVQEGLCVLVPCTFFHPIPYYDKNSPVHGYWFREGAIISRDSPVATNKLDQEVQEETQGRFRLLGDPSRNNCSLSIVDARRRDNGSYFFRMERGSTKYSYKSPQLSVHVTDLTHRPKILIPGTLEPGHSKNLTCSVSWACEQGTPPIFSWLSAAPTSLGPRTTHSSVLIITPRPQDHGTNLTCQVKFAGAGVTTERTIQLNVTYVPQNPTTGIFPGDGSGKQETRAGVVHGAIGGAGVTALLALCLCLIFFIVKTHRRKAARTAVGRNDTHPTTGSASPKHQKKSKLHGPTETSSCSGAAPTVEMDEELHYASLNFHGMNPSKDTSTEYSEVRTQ", "assay": "FACS; cells not named"}, "human CD33 [9]": {"target": "T3, human CD33", "assay": "SPR"}, "human CD7 [10]": {"target": "T1, human CD7", "assay": "SPR (Kd); value of the CD7 arm 7-PP-13"}, "human CD33 [11]": {"target": "T3, human CD33", "assay": "SPR (Kd); value of the CD33 arm 33-PP-4"}, "human CD33 [12]": {"target": "T3, human CD33", "assay": "SPR; reference 33-PP-1 WT"}, "human CD33 [13]": {"target": "T3, human CD33", "assay": "SPR (Kd); value of the CD33 arm 33-PP-7"}, "human CD7 [14]": {"target": "T1, human CD7", "assay": "SPR (Kd); value of the CD7 arm 7-PP-3"}, "human CD7 [15]": {"target": "T1, human CD7", "assay": "SPR (Kd); value of the CD7 arm 7-PP-8"}, "human CD7 [16]": {"target": "T1, human CD7", "assay": "SPR (Kd); value of the CD7 arm 7-PP-2"}},
  "note": "Changes are numbered by the printed parent chain. Where two headings read alike, the source gives them in different places.",
  "data": [
    {"binder": "B1", "values": [
      {"measurement": "Fold Reduction in binding affinity compared to PP WT (Kd)", "setting": "human CD7 [1]", "value": 20.3, "unit": "fold"},
      {"measurement": "FACS binding", "setting": "human CD7 on cells [2]", "value": 28.4},
      {"measurement": "Kd", "setting": "human CD7 [3]", "value": 44.5, "unit": "nM"},
      {"measurement": "Kd", "setting": "human CD7 [3]; record 2", "value": 72.2, "unit": "nM"},
      {"measurement": "Fold Reduction in binding affinity compared to WT (Kd)", "setting": "human CD7 [4]", "value": 17, "unit": "fold"},
      {"measurement": "Fold Reduction in binding affinity compared to WT (Kd)", "setting": "human CD7 [4]; record 2", "value": 27.5, "unit": "fold"},
      {"measurement": "Affinity from cell capt. exp.", "setting": "human CD7 on cells [5]", "value": 46},
      {"measurement": "FACS fold reduction compared to PP WT", "setting": "human CD7 on cells [6]", "value": 53.2, "unit": "fold"}
    ]},
    {"binder": "B2", "values": [
      {"measurement": "Fold reduction in binding affinity vs 7-PP-1 WT", "setting": "human CD7 [7]", "value": 0, "unit": "fold"},
      {"measurement": "Fold reduction in binding affinity vs 33-PP-1 WT", "setting": "human CD33 [8]", "value": 0, "unit": "fold"}
    ]},
    {"binder": "B3", "values": [
      {"measurement": "FACS binding", "setting": "human CD33 on cells", "value": 0.16, "unit": "nM"},
      {"measurement": "Kd", "setting": "human CD33 [9]", "value": 1.36, "unit": "nM"}
    ]},
    {"binder": "B4", "values": [
      {"measurement": "Fold reduction in binding affinity vs 7-PP-1 WT", "setting": "human CD7 [10]", "value": 20.3, "unit": "fold"},
      {"measurement": "Fold reduction in binding affinity vs 33-PP-1 WT", "setting": "human CD33 [11]", "value": 39, "unit": "fold"}
    ]},
    {"binder": "B5", "values": [
      {"measurement": "FACS binding", "setting": "human CD33 on cells", "value": 464, "unit": "nM"},
      {"measurement": "Kd", "setting": "human CD33 [9]", "value": 92.3, "unit": "nM"},
      {"measurement": "Fold Reduction in binding affinity compared to 33-PP-1 WT (Kd, nM)", "setting": "human CD33 [12]", "value": 67.9, "unit": "fold"}
    ]},
    {"binder": "B6", "values": [
      {"measurement": "Fold reduction in binding affinity vs 33-PP-1 WT", "setting": "human CD33 [11]", "value": 38.8, "unit": "fold"},
      {"measurement": "Fold reduction in binding affinity vs 7-PP-1 WT", "setting": "human CD7 [7]", "value": 0, "unit": "fold"}
    ]},
    {"binder": "B7", "values": [
      {"measurement": "Fold reduction in binding affinity vs 33-PP-1 WT", "setting": "human CD33 [13]", "value": 68, "unit": "fold"},
      {"measurement": "Fold reduction in binding affinity vs 7-PP-1 WT", "setting": "human CD7 [10]", "value": 20.3, "unit": "fold"}
    ]},
    {"binder": "B8", "values": [
      {"measurement": "Fold reduction in binding affinity vs 7-PP-1 WT", "setting": "human CD7 [14]", "value": 9.1, "unit": "fold"},
      {"measurement": "Fold reduction in binding affinity vs 33-PP-1 WT", "setting": "human CD33 [8]", "value": 0, "unit": "fold"}
    ]},
    {"binder": "B9", "values": [
      {"measurement": "Fold reduction in binding affinity vs 33-PP-1 WT", "setting": "human CD33 [13]", "value": 68, "unit": "fold"},
      {"measurement": "Fold reduction in binding affinity vs 7-PP-1 WT", "setting": "human CD7 [7]", "value": 0, "unit": "fold"}
    ]},
    {"binder": "B10", "values": [
      {"measurement": "Fold reduction in binding affinity vs 7-PP-1 WT", "setting": "human CD7 [15]", "value": 64.3, "unit": "fold"},
      {"measurement": "Fold reduction in binding affinity vs 33-PP-1 WT", "setting": "human CD33 [8]", "value": 0, "unit": "fold"}
    ]},
    {"binder": "B11", "values": [
      {"measurement": "Fold reduction in binding affinity vs 7-PP-1 WT", "setting": "human CD7 [16]", "value": 21.3, "unit": "fold"},
      {"measurement": "Fold reduction in binding affinity vs 33-PP-1 WT", "setting": "human CD33 [8]", "value": 0, "unit": "fold"}
    ]},
    {"binder": "B12", "values": [
      {"measurement": "FACS binding", "setting": "human CD33 on cells", "value": 321, "unit": "nM"},
      {"measurement": "Kd", "setting": "human CD33 [9]", "value": 52.7, "unit": "nM"},
      {"measurement": "Fold Reduction in binding affinity compared to 33-PP-1 WT (Kd, nM)", "setting": "human CD33 [12]", "value": 38.8, "unit": "fold"}
    ]},
    {"binder": "B13", "values": [
      {"measurement": "Fold reduction in binding affinity vs 33-PP-1 WT", "setting": "human CD33 [13]", "value": 68, "unit": "fold"},
      {"measurement": "Fold reduction in binding affinity vs 7-PP-1 WT", "setting": "human CD7 [15]", "value": 87, "unit": "fold"}
    ]}
  ]
}
